In patent publication US20260242487A1 (HANGZHOU ZHONGMEIHUADONG PHARMACEUTICAL, published 2026):

Tests used:
[1] = target: T1, hFGFR2b-Fc (Kactus, Catalog #FGR-HM2BB) (human, UniProt P21802-3 22-378, biotinylated in Example 9 (printed as biotin-hFGFR2b-Fc; site not stated)); experiment: competition ELISA: inhibition of FGF7-his binding to coated hFGFR2b-Fc
T1 construct: Bought reagent; also called biotin-hFGFR2b-Fc; not shown: Fc part
Description: (§1) Inhibition of binding of FGF7 and FGF10 to FGFR2b by anti-FGFR2b antibodies was measured by ELISA assay. Each step of each assay was performed by room temperature incubation with the appropriate reagent for 1 hour, except the initial plate coating step was done overnight at 4° C. Between each step, plates were washed 3 times in PBS containing 0.05% Tween 20.
(§2) To determine the abilities of the anti-FGFR2b mAbs to block ligand binding to FGFR2b, plates were coated with 1 μg/ml hFGFR2b-Fc (Kactus, Catalog #FGR-HM2BB), and followed by blocking with 2% BSA. The plates were next incubated with human FGF7-his (20 nM, Sino Biological, Catalog #10210-H07E) or biotin-FGF10 (5 nM, Kactus, Catalog #FGF-HE010B) in the presence of serial diluted (1:5) anti-FGFR2b mAbs, and the bound ligands were detected with HRP-anti 6×His tag (Abcam, Catalog #ab1187) or Streptavidin-Protein HRP (Thermo, Catalog #21126) and TMB substrate (Cell Signaling, Catalog #7004P6).

[2] = target: T1, hFGFR2b-Fc (Kactus, Catalog #FGR-HM2BB); experiment: competition ELISA: inhibition of biotin-FGF10 binding to coated hFGFR2b-Fc
Description: as §1, §2

[3] = target: T2, human FGFR2b expressed on cells (hFGFR2b-expressing CHOK1 cells); Ba/F3 cells expressing full-length human … (human, UniProt P21802-3 22-822); experiment: flow cytometry on CHOK1 cells expressing hFGFR2b, detection with APC anti-human IgG Fc
T2 construct: whole, on cells; also called FGFR2IIIb; CHOK1-FGFR2IIIb transfectants
T2 sequence (P21802 other isoform, or with tags, fused parts or gaps): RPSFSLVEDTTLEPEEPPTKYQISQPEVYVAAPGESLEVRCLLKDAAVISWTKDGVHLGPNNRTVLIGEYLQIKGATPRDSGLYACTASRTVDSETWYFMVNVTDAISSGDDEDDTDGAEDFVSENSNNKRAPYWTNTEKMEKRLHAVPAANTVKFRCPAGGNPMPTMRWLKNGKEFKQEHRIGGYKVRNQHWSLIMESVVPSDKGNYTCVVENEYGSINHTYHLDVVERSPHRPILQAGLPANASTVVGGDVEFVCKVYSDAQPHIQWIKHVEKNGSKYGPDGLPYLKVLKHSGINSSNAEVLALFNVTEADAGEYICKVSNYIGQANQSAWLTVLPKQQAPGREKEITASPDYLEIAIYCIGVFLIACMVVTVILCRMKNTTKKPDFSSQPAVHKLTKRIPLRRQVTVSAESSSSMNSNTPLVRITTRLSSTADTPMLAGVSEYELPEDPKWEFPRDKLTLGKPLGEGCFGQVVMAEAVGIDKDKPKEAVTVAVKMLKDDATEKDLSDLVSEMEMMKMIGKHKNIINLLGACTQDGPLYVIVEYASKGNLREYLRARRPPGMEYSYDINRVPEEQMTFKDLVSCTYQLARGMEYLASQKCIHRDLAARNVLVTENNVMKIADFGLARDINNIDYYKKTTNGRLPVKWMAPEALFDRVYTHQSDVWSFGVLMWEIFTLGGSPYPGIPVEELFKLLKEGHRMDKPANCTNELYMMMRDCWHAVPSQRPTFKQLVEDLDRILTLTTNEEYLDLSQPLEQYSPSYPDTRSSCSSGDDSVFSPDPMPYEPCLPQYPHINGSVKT
Description: Appropriate cells (1×10⁵) were washed twice in FACS buffer (PBS+2% BSA), resuspended in 100 μl of FACS buffer containing serial diluted (1:5) anti-FGFR2b mAbs, and incubated at 4° C. for 1 hour. Cells were then washed twice in FACS buffer and the bound antibodies were detected by incubation with APC anti-human IgG Fc (Biolegend, Catalog #410712) for 1 hour at 4° C. After washing twice in FACS buffer, cells were analyzed on a Cytoflex (Beckmann Coulter). Aprutumab was also tested as a positive control which can bind to both FGFR2b and FGFR2c.

FGFR2b-his = target: T3, FGFR2b-his (human, UniProt P21802-3 22-378); experiment: surface plasmon resonance (Octet, Sartorius): antibody immobilized by amine coupling, FGFR2b-his flowed over
T3 construct: also called human FGFR2b antigen; human FGFR2b (FGFR2b-his); not shown: his tag
T3 sequence (P21802 other isoform, or with tags, fused parts or gaps): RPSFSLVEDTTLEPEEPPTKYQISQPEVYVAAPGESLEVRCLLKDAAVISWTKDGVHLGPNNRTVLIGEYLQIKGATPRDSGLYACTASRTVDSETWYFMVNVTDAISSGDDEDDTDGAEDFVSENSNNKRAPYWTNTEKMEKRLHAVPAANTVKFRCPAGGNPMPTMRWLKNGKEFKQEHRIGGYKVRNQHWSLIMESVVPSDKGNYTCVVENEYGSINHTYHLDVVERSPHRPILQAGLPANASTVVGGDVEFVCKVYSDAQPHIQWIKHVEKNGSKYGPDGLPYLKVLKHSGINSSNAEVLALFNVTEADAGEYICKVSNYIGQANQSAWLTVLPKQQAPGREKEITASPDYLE
Description: The binding affinities of anti-FGFR2b mAbs for human FGFR2b (FGFR2b-his) was measured using surface plasmon resonance (Octet, Sartorius). Anti-FGFR2b mAbs were immobilized on a dextran chip using the amine coupling kit and 100 mM ethylenediamine in 100 mM sodium borate, pH 8.0, was used as the blocking reagent. FGFR2b-his proteins diluted in HEPES-buffered saline with 0.05% surfactant P20 running buffer were flowed over the immobilized antibody.

IC50 [1]: 3.82 nM
IC50 [2]: 4.99 nM
EC50 (read off the curve) [3]: ~0.4 nM
Kd (FGFR2b-his): 26.7 nM
koff (FGFR2b-his): 0.005 s⁻¹
kon (FGFR2b-his): 187000 M⁻¹ s⁻¹
B1: HC18 (antibody, human IgG1, kappa, V domains shown)
VH: EVQLQQSGTVLARPGASVKMSCKTSGYTFTSYWMHWVKQRPGQGLEWIGSIYPENSDTSYNQKFKGKAKLTAVTSASTAYMDLSSLTNEDSAVYYCSIYHGYDGDYWGQGTTLTVSS
VL: QIVLTQSPAIMSASPGEKVTITCSASSSVSYMYWFQQKPGTSPKLWIYSTSNLASGVPARFSGSGSGTSYSLTISRMEAEDAATYYCQQRSSYPYTFGGGTKLEIKR
notes: also called mAb HC18; the antibody of the present disclosure
